In patent US20250289873A1 (published 2025):
Positions count from the first letter of the chain named.

B1: ATX-P-577 (antibody, V domains shown)
VH: QVQLQESGPGLVKPSGTLSLTCAVSGGSISSSNWWTWVRQPPGKGLEWIGETYHDGSTNYNPSLKSRVTISVDKSKNQFSLKLSSVTAADTAVYYCLEFYFDYWGQGTLVTVSS
VL: DIQMTQSPSSLSASVGDRVTITCRASQDIRNDLGWYQQKPGKVPKRLIYAASSLQSGVPSRFSGSGSGTEFTLTISSLQPEDFASYYCLQYNNYPFTLGPGTKVDIKR
B2: ATX-P-591 (antibody, V domains shown)
VH: QVQLVQSGAEVKKPGASVKVSCKASGYTFTSYGISWVRQAPGQGLEWMGWISAYNGNTNYAQKLQGRVTMTTDTSTSTAYMELRSLRSDDTAIYYCTRDLRGTAFDYWGQGTPVTVSS
VL: DIQMTQSPSSLSASVGDRVTITCRASQSINTYLNWYQQKPGKAPKLLIYAASSLQSGVPSRFSGSGSGTDFTLTISSLQPEDFATYSCQHSFTTPFTFGPGTKLEIKR
B3: ATX-P-596 (antibody, V domains shown)
VH: EVQLVESGGGLVQPGRSLRLSCAASGFSFDDYAMHWVRQVPGKGLEWVSGISWTGGSVGYADPVKGRFTISRDNAKNSLYLQMNSLRPEDTALYYCAKDMGDGYSRNWPFDYWGQGTLVTVSS
VL: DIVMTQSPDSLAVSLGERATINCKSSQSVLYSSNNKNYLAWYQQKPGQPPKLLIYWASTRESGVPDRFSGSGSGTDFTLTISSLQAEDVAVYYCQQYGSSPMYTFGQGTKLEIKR
B4: ATX-P-566 (antibody, V domains shown)
VH: QVQLQQSGPGLVKPSQTLSLTCAISGDSVSSNSAAWNWIRQSPSRGLEWLGRTYYRSKWFNNYSVSVKSRIAINPDTSKNQFSLQLNSVTPEDTAVYYCARDLGELLDWYFDLWGRGTLVTVSA
VL: EIVLTQSPGTLSLSPGDRATLSCRASQSVRNSYVAWYQQKPGQAPRLLIYGASSRATGIPDRFSGSGSGTDFSLTIGRLEPEDFVVYYCQQYGNSPLTFGGGTKVEIKR
B5: ATX-P-564 (antibody, V domains shown)
VH: EVQLVESGGGLVKPGGSLRLSCAASGFTFSSYTMNWVRQAPGKGLEWVSSISSSSSYTYYADSVRGRFTISRDNAKNSLYLQMSSLRAEDTAVYYCARSASIAAGMDVWGKGTTVTVSS
VL: DIVMTQSPLSLPVTPGEPASISCRSSQSLLHSTGYNFLDWYLQKPGLSPQLLIYLASNRASGVPDRFSGSGSGTDFTLKISRVEAEDVGVYYCMQALQTPYTFGQGTKLEIKR
B6: ATX-P-595 (antibody, V domains shown)
VH: QVQLQQSGPGLVKPSQTLSLTCAISGDSVSSNSAAWNWIRQSPSRGLEWLGRTYYRSKWFNDYALSVKSRITINPDTSKNQFSLHLNSVTPEDTAVYYCAREPGIVAPGPFDYWGQGTLVTVSS
VL: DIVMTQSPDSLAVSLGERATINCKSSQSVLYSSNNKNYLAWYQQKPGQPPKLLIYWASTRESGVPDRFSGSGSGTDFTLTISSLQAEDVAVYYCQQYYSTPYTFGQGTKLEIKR
B7: ATX-P-592 (antibody, V domains shown)
VH: B6 VH with F60Y, N61S, A64P, H85Q, E102D, P103S, A107E, P108T, G109T
VL: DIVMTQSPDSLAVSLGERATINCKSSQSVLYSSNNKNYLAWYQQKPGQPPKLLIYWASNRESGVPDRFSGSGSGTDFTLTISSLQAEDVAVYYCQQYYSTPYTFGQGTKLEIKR
B8: ATX-P-582 (antibody, V domains shown)
VH: QVQLQESGPGLVKPSGTLSLTCAVSGGSISISKWWSWVRQPPGKGLEWIGEIYHTGSTNYHPSLKSRVTISVDKSKNQFYLKLNSVTAADTAVYYCARDELRLGELSPSLDIWGQGTMVTVSS
VL: DIQMTQSPSSLSASVGDRVTITCRASQNINNYLNWFRQKPGKAPKLLIFAASSLQSGVPSRFSGSESGTDFTLTISSLQPEDFATYYCQQSYSTPLTFGGGTKVEIKR
B9: ATX-P-569 (antibody, V domains shown)
VH: EVQLVESGGGLAQFGRSLRLSCAASGFTFDDYAMHWLRQAPGMGLEWVSGISWNSGSIGYADSVKGRFTIARDNAKNSVHLQMNSLRAEDTALYYCAKDIGNGYTKGDVFDIWGQGTMVTVSS
VL: DIQMTQSPSTLSASVGDSVTITCRASQNIITWLAWYQQKPGKAPNLLIYKASSLESGVPSRFSGSGSGTEFTLTISSLQPDDFATYYCQQYSSYSYTFGQGTKLEIKR
B10: ATX-P-603 (antibody, V domains shown)
VH: QVQLQESGPGLVKPSGTLSLTCAVSGGSISGSHWWSWFRQPPGKGLEWIGEIYHTGSTNKNPSLKSRVTISLDKSKNQFSLRLRSVTDADTAVYYCARDQYTGSPRDAFDIWGQGTMVTVSS
VL: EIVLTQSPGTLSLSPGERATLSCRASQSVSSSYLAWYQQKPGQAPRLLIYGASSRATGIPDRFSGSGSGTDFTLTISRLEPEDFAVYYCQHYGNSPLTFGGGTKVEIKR
B11: ATX-P-563 (antibody, V domains shown)
VH: QVQLQESGPGLMKPSETLSLTCTVSGGSISSHYWSWIRQPPGKGLEWIGYIFYSGNINYNPSLKSRVTISVDTSKNQFSLKLRSVTTADTAVYYCARDRGGSYSYHFDCWGQGTLVTVSS
VL: DIQMTQSPSSVSASVGDRVTITCRASQSFAGWLAWYQQKPGKAPKLLIYAASTLQSGVPSRFSGSGSGTDFTLTISSLQPEDFATYYCQQANSFPLTFGGGTKVEIKR
B12: ATX-P-587 (antibody, V domains shown)
VH: QVQLQQSGPGLVKPSQTLSLTCAISGDSVSSNSAAWNWIRQSPSRGLEWLGKTYYRSKWYNYYALSVKSRITINPDTSKNQFSLHLNSVTPEDTAVYYCARDGDYYLPSPFDLWGHGTMVTVSS
VL: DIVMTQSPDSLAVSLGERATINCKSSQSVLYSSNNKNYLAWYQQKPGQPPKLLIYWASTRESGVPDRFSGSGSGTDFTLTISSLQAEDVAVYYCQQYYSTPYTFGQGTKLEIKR
B13: ATX-P-600 (antibody, V domains shown)
VH: EVQLVESGGGLVQPGRSLRLSCAASGFTFDDYAMHWVRQVPGRGLEWVSGISWSGGSIGYADSVKGRFTISRDNSKNSLYLQMNSLRAEDTALYYCTKDREDGYNYGGVFDYWGQGTLVTVSS
VL: EIVLTQSPGTLSLSPGERATLSCRASQNVRGSYLAWYQQKPGQAPRLLIYGASNRATDIPDRFSGSGSGTDFTLTISGLEPEDFVVYYCQQYGSSYTFGQGTKVEIKR
B14: ATX-P-594 (antibody, V domains shown)
VH: QVQLQQSGPGLVKPSQTLSLTCAISGDSVSSNSASWNWIRQSPSRGLEWLGTTYYRSKWFNVYAVSVKSRITINPDTSKNQFSLHLNSVTPEDTAIYFCTRDRGDLLHWYFDLWGRGTLVTVSS
VL: EIVLTQSPGTLSLSPGERATLSCRASQSVSSSYLAWYQQKPGQSPRLLIYGASSRATGIPDRFSGSGSGTDFTLTISRLEPEDFAVYYCQQYGRSVTFGGGTKLEIKR
B15: ATX-P-604 (antibody, V domains shown)
VH: QVQLQQSGPGLVKPTQTLSLTCAISGDSVSSNSAAWNWIRQSPSRGLEWLGRTYYRSKWFNGYAVSVKSRITINPDASKNQFSLHLKSVTDEDTAVYYCATDRGELLHWYFDLWGRGTLVTVSS
VL: B14 VL with G9D, S28T, V29I, S30R, Q39L, S44A, T75S, V96I, T97I, L104V

Each binder was assayed against hCFHR4 (assay: SPR kinetics).

In order of rising Kd:
1. B15  0.222 nM
2. B3  0.225 nM
3. B14  0.326 nM
4. B1  0.665 nM
5. B10  0.917 nM
6. B7  0.973 nM
7. B11  1.05 nM
8. B9  1.44 nM
9. B4  3.48 nM
10. B5  3.56 nM
11. B12  4.26 nM
12. B13  7.39 nM
13. B8  10 nM
14. B6  16.9 nM
15. B2  117 nM

Target: T1, hCFHR4b
T1 chain: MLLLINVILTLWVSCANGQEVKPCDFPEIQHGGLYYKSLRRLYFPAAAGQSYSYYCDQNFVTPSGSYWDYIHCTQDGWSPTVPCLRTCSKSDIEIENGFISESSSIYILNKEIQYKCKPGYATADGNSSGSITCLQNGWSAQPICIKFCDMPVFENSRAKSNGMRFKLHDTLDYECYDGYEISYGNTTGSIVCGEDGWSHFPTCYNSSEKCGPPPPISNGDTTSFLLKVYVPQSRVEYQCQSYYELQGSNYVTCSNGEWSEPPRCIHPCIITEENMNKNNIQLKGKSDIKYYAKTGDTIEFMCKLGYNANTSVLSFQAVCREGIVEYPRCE
Experiment: SPR kinetics

In order of falling Kd:
1. B6  16.9 nM
2. B13  7.39 nM
3. B9  1.44 nM
4. B7  0.973 nM
5. B10  0.917 nM
6. B14  0.326 nM

Target: T2, FHR-4 (coated on plate, C3 convertase assembly assay) (UniProt Q92496 20-331)
T2 chain: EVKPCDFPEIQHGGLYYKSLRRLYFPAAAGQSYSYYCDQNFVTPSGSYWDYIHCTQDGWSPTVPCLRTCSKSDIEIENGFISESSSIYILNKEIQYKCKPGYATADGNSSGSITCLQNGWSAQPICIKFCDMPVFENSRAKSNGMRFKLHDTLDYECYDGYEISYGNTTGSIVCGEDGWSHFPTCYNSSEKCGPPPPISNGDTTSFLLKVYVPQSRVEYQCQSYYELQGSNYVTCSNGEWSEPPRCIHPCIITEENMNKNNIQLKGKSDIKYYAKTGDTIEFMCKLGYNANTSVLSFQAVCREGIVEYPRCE
Experiment: C3 convertase assembly assay

In order of rising IC50:
1. B4  3.27 nM
2. B5  3.94 nM
3. B14  4.09 nM
4. B7  4.28 nM
5. B6  5.94 nM
6. B10  7.6 nM
7. B13  8.44 nM
8. B9  12.1 nM

Target: T2, FHR-4 (coated on plate, C3 convertase …)
Experiment: C3 convertase assembly assay
Remark: another data set of the same source

In order of rising IC50:
1. B14  4 nM
2. B7  4.2 nM
3. B6  5.9 nM
4. B10  7.6 nM
5. B13  8.4 nM
6. B9  12 nM
